{
  "source": "paper PMC12277278",
  "about": "(Frontiers in Immunology, 2025)",
  "binders": {"B1": {"name": "F945 IgG (recombinant human monoclonal antibody, IgG1/kappa) (antibody, V domains shown)", "VH": "QVQLVESGGGVVQPGRSLRLSCAASGFSFNTYAFHWVRQGPGKGLEWVAGISFDGSKRYYADSVKGRFTVSRDNSKNTLYLQMNGLIPEDTAVYYCARDRRIVVVSAPGYWGQGTLVTVSS", "VL": "DIQMTQSPSSLSASVGDRVTITCQASHDISNYLNWYQQKPGKAPKLLIFDASYLETGVPSRFSGSGSGTDFTFTINSLQSEDIATYYCQQYDTLLSFGGGTRVEIK"}},
  "biological_target": "T1, recombinant DbpA from B. burgdorferi strain 297 (DbpA297) (Borrelia burgdorferi strain 297, UniProt O50917)",
  "T1 construct": "also called recombinant DbpA297",
  "T1 sequence (O50917 30-168)": "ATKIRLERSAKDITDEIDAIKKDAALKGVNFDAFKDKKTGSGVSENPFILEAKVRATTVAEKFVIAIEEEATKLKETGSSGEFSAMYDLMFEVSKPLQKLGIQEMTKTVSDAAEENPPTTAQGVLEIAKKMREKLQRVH",
  "experiment": "multiplex microsphere immunoassay (MIA, Luminex); recombinant antigens coupled to MagPlex-C microspheres; diluted MAb incubated 1 h at RT; PE-labelled secondary antibody; MFI read on a FlexMap 3D",
  "conditions": "both partners purified",
  "data": [
    {"binder": "B1", "values": [
      {"measurement": "binding result", "result": "no binding"}
    ]}
  ]
}
